Laboratory results published in patent US20130224224A1 (Boehringer Ingelheim, published 2013).
Residue numbers refer to the chain shown, from its start.

T1: human CX3CR1 (human, UniProt P49238 1-355)
T1 construct: overexpressed on CHO, BA/F3 or HEK293T cells; also called huCX3CR1; hCX3CR1
T1 sequence: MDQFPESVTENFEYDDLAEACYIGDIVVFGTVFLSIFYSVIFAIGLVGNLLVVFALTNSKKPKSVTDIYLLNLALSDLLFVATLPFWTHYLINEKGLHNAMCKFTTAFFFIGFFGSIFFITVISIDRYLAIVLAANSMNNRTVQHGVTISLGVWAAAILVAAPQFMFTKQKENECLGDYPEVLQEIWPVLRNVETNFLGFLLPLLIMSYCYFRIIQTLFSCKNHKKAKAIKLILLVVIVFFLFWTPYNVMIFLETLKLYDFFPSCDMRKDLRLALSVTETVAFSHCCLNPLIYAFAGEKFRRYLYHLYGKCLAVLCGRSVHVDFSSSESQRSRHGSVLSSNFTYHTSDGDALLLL

T2: cynomolgus CX3CR1 (cynomolgus, UniProt P49238 1-355 (human entry))
T2 construct: transiently expressed on HEK293T cells; also called cyCX3CR1; cyno CX3CR1
T2 chain: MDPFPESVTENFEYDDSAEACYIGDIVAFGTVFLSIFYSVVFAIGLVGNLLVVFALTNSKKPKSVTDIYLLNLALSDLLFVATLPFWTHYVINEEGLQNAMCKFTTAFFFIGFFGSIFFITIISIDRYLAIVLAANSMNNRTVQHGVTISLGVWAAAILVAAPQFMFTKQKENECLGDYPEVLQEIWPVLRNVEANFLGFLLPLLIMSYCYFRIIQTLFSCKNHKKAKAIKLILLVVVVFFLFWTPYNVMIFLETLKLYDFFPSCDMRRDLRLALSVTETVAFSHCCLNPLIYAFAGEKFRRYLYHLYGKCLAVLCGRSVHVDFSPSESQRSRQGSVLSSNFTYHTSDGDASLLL

B1: CX3CR1BIIPMP54H1 (VHH)
VHH: EVQLVESGGGSVQAGESLRLSCAASGTIFSSNAMAWYRQAPGKQRDLVAGINSVDITKYADSVKGRFTVSRDNAKNTVYLQMNSLKPEDTAVYYCTSDPRRGWNTRYWGQGTQVTVSS
notes: also called 54H01; not shown: C-terminal c-myc and His6 tags
B2: CX3CR1BIIPMP61B2 (VHH)
VHH: B1 VHH with G8R, E16A, T27S, G50V, S53T, D55G, V69I, P99A, N104D
notes: also called 61B02; not shown: C-terminal c-myc and His6 tags
B3: CX3CR1BIIPMP61E2 (VHH)
VHH: B1 VHH with T27S, D55G, V69I, T90M, N104D
notes: also called 61E02; not shown: C-terminal c-myc and His6 tags
B4: CX3CR1BIIPMP61F11 (VHH)
VHH: B1 VHH with E1K, T27S, A40P, G50A, D55G, V69I, S70F, N104D
notes: not shown: C-terminal c-myc and His6 tags
B5: CX3CR1BIIPMP61G3 (VHH)
VHH: B1 VHH with E1K, V12M, T27S, G50A, D55G, V69I, N83M, N104D
notes: also called 61G03; not shown: C-terminal c-myc and His6 tags
B6: CX3CR1BIIPMP61G4 (VHH)
VHH: B1 VHH with E1K, E16G, T27S, G50A, D55G, V69I, N83M, N104D
notes: also called 61G04; not shown: C-terminal c-myc and His6 tags
B7: CX3CR1BIIPMP66G01 (VHH)
VHH: B1 VHH with V2M, T27S, G50L, D55G, V69I, P99G, N104D
notes: also called CX3CR1BII66G01; not shown: C-terminal c-myc and His6 tags

What was measured:
[1] = target: T1, human CX3CR1; assay: A647-fractalkine competition FACS, HEK293-huCX3CR1
Excerpt: (§1) Periplasmic extracts were screened in a human CX3CR1/human Fractalkine FACS competition assay to assess the blocking capacity of the expressed VHHs. Human CX3CR1 was presented on CHO cells overexpressing CX3CR1. Both a setup using cells harvested from an actively growing culture and a setup using frozen cells was used. As a detection reagent labeled fractalkine was used (R&D Systems, Minneapolis, Minn., USA) labeled with alexa647 (A647-Fractalkine) at a degree of labeling of 1. To setup the assay, first a titration series of the labeled fractalkine was performed on the CHO-huCX3CR1 cells in order to determine the EC50 value for binding. Initially screening was performed at a higher concentration of fractalkine (3 nM) to increase the assay robustness. To increase the sensitivity of the screening to a maximum, the EC30 concentration (1 nM) was chosen for subsequent screening. In brief 50 μl of periplasmic extract was added to 6 nM labeled fractalkine (50 μ;) and 200 000 CHO-huCX3CR1 cells. After one hour incubation at 4 C, cells were washed three times before read out was performed on a FACS Array (Becton Dickinson). First a gate was set on the intact cells as determined from the scatter profile. Next, dead cells were gated out by their fluorescence profile from the PI stain (Sigma, St Louis, US). The fluorescence profile from the alexa647 label was determined for each sample and used for calculation of blocking capacity. As controls, conditions were taken along where there was no VHH present in the peri extract or a known irrelevant VHH and samples were included where excess cold fractalkine was included. For each sample the percentage block was determined using the control samples to determine the assay window.
The blocking capacity towards the ligand fractalkine of the VHHs was evaluated in a human CX3CR1 competition FACS as outlined in Example 4. Either CHO-huCX3CR1 cells, BA/F3-huCX3CR1 cells or transiently transfected HEK293T cells were used. The amount of labeled ligand used in the different competition setups was also varied. The IC₅₀ values for VHHs blocking the interaction of human fractalkine to human CX3CR1 are depicted in Table 19.

[2] = target: T1, human CX3CR1; assay: periplasmic extract, A647-fractalkine competition FACS, CHO-huCX3CR1
Excerpt: as §1

[3] = target: T2, cynomolgus CX3CR1; assay: A647-fractalkine competition FACS, HEK293T cynomolgus CX3CR1
Excerpt: as §1
(§2) For later identified VHHs, a human Fractalkine competition FACS was set up using human or cynomolgus CX3CR1 expressed in HEK293T cells. Both the human and the cynomolgus receptor was transiently transfected in HEK293T cells and transfections were matched by the binding of the labeled ligand, human fractalkine. The competition was evaluated using the EC30 concentration of fractalkine and as such obtained IC50 values are a good estimate of the Ki value, a measure for affinity (Table 22). The experiment was performed as described in Example 4.

[4] = target: T2, cynomolgus CX3CR1; assay: A647-fractalkine competition FACS, cynomolgus against human CX3CR1
Excerpt: as §1, §2

[5] = target: T1, human CX3CR1; assay: A647-fractalkine competition FACS, HEK293T human CX3CR1
Excerpt: as §1, §2

[6] = target: T1, human CX3CR1; assay: cell-based or functional assay

Binder	% block [1] [%]	IC50 [1] [nM]	% block [2] [%]	% block [3] [%]	IC50 [3] [nM]	ratio (cynomolgus/human IC50) [4]	% block [5] [%]	IC50 [5] [nM]	% block, fractalkine induced chemotaxis [6] [%]	IC50, fractalkine induced chemotaxis [6] [nM]
B1	64	10	74.6	92	68	6.48	64	10		
B2	94	10	94.5	92	45	4.37	94	10		
B3	98	82	70.3	96	46	0.55	98	82		
B4	96	46	96.5	95	160	3.58	96	46		
B5	96	60	92.1	89	300	5.02	96	60		
B6	96	42	94.5	100	200	4.8	96	42		
B7	99	14		100	120	8.29	99	14	54	400
